Drawing on patent US20240218057A1 (ROCKEFELLER UNIVERSITY, published 2024), this text covers EC50 for 24 molecules.

The chains are these.
B1: C904 (antibody, V domains shown)
VH: QVQLQQWGAGLLKPSETLSLTCAVNGGSLSLYYWSWIRQSPGKGLEWIGEINHFGGSDYKPSLKSRVSISVDTSTNQFSLKLSSVTAADTAVYYCARKPLLHSNISPGAFDIWGQGTMVTVSS
VL: EIVLTQSPGTLSLSPGERATLSCRASQSVAGSYLAWYQQKPGQAPRLLIYGASSRATGVPDRISGSGSGTDFTLTISRLEPEDFAVYYCQQYTNTPRTFGGGTKVEI
B2: C914 (antibody, V domains shown)
VH: QVQLQESGPGLVKPSQTLSLTCTVSGGSITSGDYYWTWIRQPPGKGLEWIGYIYYSGNTYYNLSLRSRITISEDTSKNQFSLKLRSVTAADTAVYYCARAMITFGGVIVVLDYWGQGTLVTVSS
VL: QSALTQPPSASGSPGQSVTISCTGTSTDVGGYNFVSWYQQHPGKAPKLMIYEVSKRPSGVPDRFSGSKSGNTASLTVSGLQAEDEADYYCSSYAGSNILYVFGTGTKVTVL
B3: C915 (antibody, V domains shown)
VH: QVQLQESGPGLVKPSQTLSLTCTVSGGSISSGDYYWSWIRQPPGKGLEWIGYIYYSDSTYYNPSLRTRVTISVDTSKNQFSLKLTSVTAADTAVYYCARAMITFGGVIVLYDYWGQGTLVTVSS
VL: B2 VL with T27S, F34Y, S54T, D62A, N97I, I98L
B4: C908 (antibody, V domains shown)
VH: EVQLVQSGAEVKKPGESLKISCKASGYSFTIYWIGWVRQMPGKGLEWMGIIYPGESETRYSPSFQGQVTISADKSISTAYLQWRSLKASDTAMYYCARGGPPGGVKLELTDYWGQGTLVTVSS
VL: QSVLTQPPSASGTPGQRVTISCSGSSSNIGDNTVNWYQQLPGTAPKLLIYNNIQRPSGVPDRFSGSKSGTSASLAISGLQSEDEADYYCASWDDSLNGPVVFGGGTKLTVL
B5: C905 (antibody, V domains shown)
VH: QVQLQESGPGLVTPSQTLSLTCSVSGGSIHSRDFYWGWIRQHPGKGLEWIGHIYYTGNTYYNPSLKSRVTISADTSKNQFSLKLSSVTAADTAVYYCARATVVITLHWFDPWGQGTLVTVSS
VL: NFMLTQPHSVSESPGKTVTISCTGSGGSIASNYVQWYQQRPGSAPTTVIYEDNERPSGVPDRFSGSIDSSSNSASLTISGVKTEDEADYFCQSYDVGNPVIFGGGTKLTVL
B6: C918 (antibody, V domains shown)
VH: QVQLVESGGGLVKPGGSLRLSCTASGFTFSDYYMTWLRQAPGKGLEWVSYISSTSPYTSYADSVKGRFTISRDNARNSVYLQMNSLRAEDTAIYYCARVPPPQRLHPFDVWGQGTMVTVSS
VL: DIQMTQSPSTLSASVGDRVTITCRASQSISSWLAWYQQKPGKAPKLLIYQASSLESGVPSRFSGSGSGTDFTLTISSLQPDDFATYYCQQYFRYSWTFGQGTKVEI
B7: C1060 (antibody, V domains shown)
VH: EVQLVESGGDLVQPGGSLRLSCAASEIIVSRNYMNWVRQAPGKGLEWVSIIYSGGSTFYGDSVKGRFTISRDSSKNTLYLQMHGLRVEDTAIYYCARSYGDYYIDYWGQGTLVTVSS
VL: DIQMTQSPSSVSASVGDRVTITCRTSQSISTSLAWYQQKPGKAPKLLIYAASSLQRGVPSRFSGTGSGTDFTLTISSLQPEDFATYYCQQSSSSPPLFTFGPGTKVDIK
B8: C912 (antibody, V domains shown)
VH: QVQLVESGGGVVQPGRSLRLSCAASGFSFSTYTMHWVRQTPDKGLEWVAVISDDGKNKYYADSMKGRFTISRDNSKNTLYLQMSSLRPEDTAVYYCARDLENVMIEVALESWGQGTLVTVSS
VL: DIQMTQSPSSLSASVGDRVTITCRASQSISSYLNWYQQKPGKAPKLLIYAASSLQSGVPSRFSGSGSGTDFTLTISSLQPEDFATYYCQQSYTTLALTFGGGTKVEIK
B9: C907 (antibody, V domains shown)
VH: QVQLQESGPGLVKPSETLSLTCTVSGGSITSYYWTWIRQSPGKGLEWIGYIYYIGSTNYNPSLKSRLTISLATSKNQFSLRLNSVTAADTAVYYCASYYNDTSGYSYGLDVWGQGTTVTVSS
VL: DIQMTQSPSSLSAFVGDRVTITCRAGQSISSYLHWYQQKPGKAPKLLIYATSTLQSGVPSRFSGRGSGTDFTLTISGLQPEDFATYYCQQSYSTPQTFGQGTKVEIK
B10: C920 (antibody, V domains shown)
VH: QLQLQESGPGLVKPSETLSLTCAVSGGSISNSPFYWGWIRQPPGKGLECIGSIYYSGSTYYNPSLKSRVTISVDTSKKQFSLKLSSVTAADTAVYYCARHFADGSGRVVDSWGQGILVTVSS
VL: EIVLTQSPATLSLSPGERATLSCRASQSVSSYLAWYQQKPGQAPSLLIYDVSNRATGIPARFSGSGSGTDFTLTISSLEPEDFAVYYCQQRINWPLYTFGQGTKLEIK
B11: C921 (antibody, V domains shown)
VH: B10 VH with G37A, S56T, K77T, S85R, S111Y, I116T
VL: B10 VL with S30T, S31T, S45R, N53S, I92S
B12: C909 (antibody, V domains shown)
VH: QVQLVQSGAEVKKPGASVKVSCRASGYTFPNYDLNWVRQATGQGLEWMGWMNPNSGNTGYAQKFQGRITMTRITSISTAYMELSSLRSEDTAVYYCARGRANWNSNFLLDSWGQGTLVTVSS
VL: QSALTQPASVSGSPGQSITISCTGTSSDVGGYNLVSWYQQYPGNVPKLMIYEDAKRPSGVSNRFSGSKSANTASLTISGLQAEDEADYYCCSYAGSSTRYVFGTGTKVTVL
B13: C916 (antibody, V domains shown)
VH: EVQLVESGGGLVQPGGSLRLSCAASGFTFSNYDMHWVRQATGRGLEWVSTIGTAGDTYYPGSVKGRFTISRENAKNSLYLQMNSLRAGDTALYYCARVRYDSSGYFWSLDYWGQGTLVTVSS
VL: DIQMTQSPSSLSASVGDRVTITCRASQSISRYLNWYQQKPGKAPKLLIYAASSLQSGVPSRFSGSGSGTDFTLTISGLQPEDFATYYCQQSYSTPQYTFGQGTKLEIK
B14: C917 (antibody, V domains shown)
VH: B13 VH with R43K, E46D, L92V, Y100F, S102T
VL: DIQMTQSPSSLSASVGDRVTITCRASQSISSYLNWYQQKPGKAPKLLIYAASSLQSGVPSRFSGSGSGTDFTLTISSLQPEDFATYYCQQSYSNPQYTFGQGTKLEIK
B15: C1067 (antibody, V domains shown)
VH: QVQLVQSGAEVKKPGASVKVSCKASRDTFTTHYIHWVRQAPGQGLEWMGIINPSGGSISYAQKFQGRVTMTRDTSTSTVYMELSSLRSEDTAVYYCARGGIVPHLSNWFDPWGQGTLVTVSS
VL: EIVLTQSPGTLSLSPGERATLSCRASQSVSSSYLAWYQQKPGQAPRLLIYGASSRATGIPDRFTGSGSGTDFTLTISRLEPEDFAVYYCQQYGRSSGFTFGPGTKVDIK
B16: C1066 (antibody, V domains shown)
VH: EVQLVESGGGLVQPGRSLRLSCAASGFMFDDYAMHWVRQAPGKGLEWVSGINWSSADIGYVDSVKGRFTISRDNAKNSLYLQMNSLRTEDTAFYYCAKGWFGELLGGSDSWGQGTLVTVSS
VL: QLVLTQSSSASASLGSSVKLTCTLNSGHSSYIIAWHQQQPGKAPRYLMKLEGSGSYNKGSGVPDRFSGSSSGADRYLTISNLQFEDEADYYCATWDSNTQVFGGGTKLTVL
B17: C911 (antibody, V domains shown)
VH: QVQLVESGGGVVQPGGSLRLSCAASAFTFSSYAMHWIRQSPGKGLEWVAVISSDGSSKFYADSVKGRFTISRDNSKNTLYLQMNSLSAEDTAVYYCARDLENVLIEVALQDWGQGTLVTVSS
VL: DIQMTQSPSSLSASVGDRVTITCRASQSINSYLNWYQQKPGKAPKLLIYAASSLHSGVPSRFSGSGSGTDFTLTISSLQPEDFATYYCQQSYTTLALTFGGGTKVEIK
B18: C906 (antibody, V domains shown)
VH: EVQLVESGGGLIKPGRSLRLSCTASGFTFGDYAMTWFRQAPGKGLEWVGFIRSKAYGGTTGYAASVKYRFTISRDDSKSIVYLQMDSLKTEDTAVYYCTRWDGWSQHDYWGQGTLVTVSS
VL: DIVMTQSPLSLSVTPGEPASISCRSSQSLLHSNGINYFDWYLQKPGQSPQLLIYLGSNRASGVPDRFSGSGSGTDFTLKISRVEAEDVGVYYCMQVLQIPYTFGQGTKLEI
B19: C1063 (antibody, V domains shown)
VH: EVQLVQSGAEVKKPGESLKISCKGYGNSFNNYWIAWVRQMPVKGLEWMGVINPGDSDTRYSPSFQGQVTISVDKSISTAYLQWSSLKASDTAMYYCARTWSPAAVAFFDSWGQGTLVTVS
VL: NFMLTQPHSVSESPGKTVTISCTRSSDSIGSNYVQWYQQRPGSSPTIVIYEDSQRPSGVPHRFSGSFDSSSNSASLTISGLKTEDEADYYCQSWDSGNLVFGGGTKLTVL
B20: C922 (antibody, V domains shown)
VH: QVQLVESGGGLVKPGGSLRLSCAGSGFTFTDYYMAWIRQAPGKGLEWVSYISTSDRFINYADSVKGRFTISRDDAKNSLYLQMNSLRAEDTAVYYCARDGGGYDRFDHWGQGTLVTVSS
VL: DIQMTQSPSSLSASVGDRVTITCQASQDISNLLNWYQQKAGKAPKLLIYDASNLETGVPSRFSGSGSGTDFTFTISSLQPEDIATYYCLQYDNLPLTFGQGTKLEIK
B21: C1065 (antibody, V domains shown)
VH: EVQLVESGGGLIQPGGSLRLSCAASGFTVSRNYMSWVRQAPGKGLEWVSVIYSGGSTFYADSVKGRFTISRDNSKNTLYLQMNSLRAEDTAVYYCARGLPTGEGWNYFDYWGQGTLVTVSS
VL: QSALTQPASVSGSPGQSITISCTGTSSDIGGYHYVSWYQQHPGKAPKLMIYDVSNRPSGISNRFSGSKSGNTASLTISGLQAEDEADYYCSSYASSSVIFGGGTKLTVL
B22: C910 (antibody, V domains shown)
VH: QVQLVQSGAAVKKPGASVKVSCKASGYTFTSYDINWVRQAPGQGLEWMGWMNPNSGNTGFAQRFQGRATLSRDTSITTAYMELTTLRSEDTAVYYCARGRANYNSKFLLDNWGQGTLVTVSS
VL: QSALTQPASVSGSPGQSITISCTGTSSDVGSYNLVSWYQQHPGTAPKLMIYEGSKRPSGVSDRFSGYKSGNTASLTISGLQADDEADYYCCSFAGSTTRYVFGTGTRVTVL
B23: C903 (antibody, V domains shown)
VH: EVQLVESGGGLIQPGGSLRLSCAASGFIVSRNYMSWVRQAPGKGLEWVSIIYSGGSTFYADSVKGRFTISRDNSKNTVYLQMNSLRAEDTAVYYCARDYGDFYFDYWGQGTLVTVSS
VL: EIVLTQSPGTLSLSPGERATLSCRASQSVSSSYLAWYQQKPGQAPRLLIFDVSSRATGIPDRFSGSGSGTDFTLTISRLEPEDFAVYYCQQYGSSPRTFGQGTKVEIK
B24: C1068 (antibody, V domains shown)
VH: QVQLVESGGGVVQPGRSLRLSCAASGFTFSTFAMHWVRQAPGKGLEWVAVTSYDGSNKYYADSVKGRFTISRDNSKNTLYLQMNSLRAEDTAVYYCARGLLWFGESEYFQHWGQGTLVTVSS
VL: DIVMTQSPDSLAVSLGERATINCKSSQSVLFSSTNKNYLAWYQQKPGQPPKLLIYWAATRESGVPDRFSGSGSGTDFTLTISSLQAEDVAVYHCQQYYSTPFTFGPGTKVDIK

Positions count from the first letter of the chain named.

The assay addresses T1, SARS-COV-2 RBD (SARS-COV-2, UniProt P0DTC2 319-539).
T1 construct: also called WT RBD
Briefly: ELISA, RBD coated on plate. For orientation: An ELISA detects its analyte on a solid surface through an enzyme-linked reagent.
One may read the EC50 as the concentration that produces a half-maximal response. Take B1: the EC50 was 3.31 ng/mL.

The molecule B2 returned a 50% effective concentration (EC50) of 1.59 ng/mL.

The molecule B3 displayed an EC50 of 3.49 ng/mL.

The molecule B4 registered an EC50 of 1.27 ng/mL.

In the case of B5, it took 3.06 ng/mL to reach a half-maximal effect (EC50).

B6 showed an EC50 of 1.78 ng/mL.

Take B7: the 50% effective concentration (EC50) came to 2.67 ng/mL. This EC50 is about 1.5-fold higher than that of the molecule before.

As to B8, the EC50 came out at 2.45 ng/mL.

Molecule B9 displayed an EC50 of 3.71 ng/mL. Against the preceding molecule, the EC50 is about 1.5-fold higher.

Regarding B10, the EC50 was determined as 2.35 ng/mL.

For B11, the EC50 is 3.91 ng/mL. Compared with the last molecule, the EC50 is about 1.7-fold higher.

Regarding B12, the EC50 amounted to 3.24 ng/mL.

In turn, B13 showed an EC50 of 1.97 ng/mL.

Molecule B14 displayed an EC50 of 1.05 ng/mL.

In turn, B15 showed a concentration giving a half-maximal response (EC50) of 2.93 ng/mL. This EC50 lies about 2.8-fold higher than the previous one.

Turning to B16, a half-maximal effect (EC50) was put at 3.01 ng/mL. This EC50 and that of the molecule before are within 1.5-fold of each other.

B17 had a concentration for a half-maximal effect (EC50) of 2.36 ng/mL.

With B18, a half-maximal effect (EC50) was put at 1.07 ng/mL.

Regarding B19, the 50% effective concentration (EC50) amounted to 3.04 ng/mL.

The molecule B20 registered a half-maximal effective concentration (EC50) of 2.42 ng/mL.

The molecule B21 displayed an EC50 of 3.52 ng/mL.

The molecule B22 displayed an EC50 of 2.47 ng/mL.

For B23, the EC50 is 2.54 ng/mL.

B24 had an EC50 of 2.48 ng/mL.
